Experimental data taken from patent US11311610B2, “Immune-modulating agents and uses therefor” (UNIVERSITY OF TECHNOLOGY SYDNEY, priority 2010, dated 2022).

Experiments:
[1] = test system: NOD mice; assay: Diabetes development in NOD mice (blood glucose); assay type: in vivo
Description: FIG. 13 is a graphical representation showing that FhHDM-1 protects NOD mice from developing diabetes. FhHDM-1 was given to female NOD mice aged 4 weeks. 10 μg of FhHDM-1 was delivered i.p. in PBS on alternate days for a total of 6 doses. Blood glucose readings were taken weekly and mice with two consecutive readings >14 mmol/L were deemed diabetic.
Female NOD mice (n=10) were given recombinant HDM (10 μg in 100 μL sterile PBS) by intraperitoneal (i.p.) injection on alternate days beginning at 4 weeks of age for a total of 6 injections. Control mice were given 100 μL of sterile PBS on the same days. Blood glucose levels were measured once a week, from the age of 13 weeks, using Accu-check Advantage blood glucose strips (Roche). Animals were sacrificed when they became overtly diabetic; as defined by two random blood glucose concentrations above 12 mM. Statistical analysis of the times the animal was sacrificed was performed using survival analysis.

[2] = test system: LPS-induced inflammatory response; assay: Endotoxin (LPS)-induced inflammation in mice, co-injection; assay type: in vivo, BALB/c mice
Description: FIG. 9 is a graphical representation showing LPS neutralization by FhHDM-1. The ability of FhHDM-1 (Δ), FhHDM-1 p1 (●) or FhHDM-1 p3 (▪) to bind to LPS was investigated by (A) incubating a range of concentrations of proteins (0.02-2 μg/well) in an LPS-coated (100 ng/well) microtitre plate. Bound peptides were detected by ELISA using rabbit anti-FhHDM-1 as a primary antibody. (B) FhHDM-1 or derived peptides (0.1 μg) were incubated in the presence of LPS (0.05-5 μg/well) and bound peptides measured as described above. Binding of peptides to the LPS-immobilized plates was expressed as a percentage of that measured for 2 μg (for panel A) or 0.1 μg (for panel B) of FhHDM-1. Data are the means±SD from three separate experiments. (C) FhHDM-1 and FhHDM-1 p3 but not FhHDM-1 p1 reduced the interaction between LPS and LBP as effectively as LL-37. LPS-coated microtitre plates were incubated with 5 μg/well of LL-37, FhHDM-1 or derived peptides for 1 h prior to the addition of 10% human sera in PBS. Interaction of LBP with LPS was measured by ELISA using an anti-LBP primary antibody and expressed as a percentage of that detected for 10% sera in the absence of added peptides. Data are the mean±SD of three separate experiments. Statistical significance was calculated using the student t-test and represent a comparison to the binding of 10% sera to immobilized LPS. (D) Binding of FITC-conjugated LPS to RAW264.7 cells was inhibited by LL-37, FhHDM-1 and peptides. RAW264.7 cells (5×10^5 cells/mL) were incubated with 1 μg/mL of FITC-conjugated LPS in the presence of increasing concentrations (0.1-10 μg/mL) of FhHDM-1, FhHDM-1 p1 and FhHDM-1 p3 and LL-37 in RPMI 1640 containing 10% FBS for 20 min at 4° C. The binding of FITC-LPS was analyzed by flow cytometry. LPS binding was expressed as a percentage of the mean fluorescence obtained for the addition of FITC-LPS to cells in the absence of peptides. Data are the mean±SD of two independent experiments. (E) FhHDM-1 and FhHDM-1 p3 both suppress the inflammatory response induced by LPS in mice. BALB/c mice were intra-peritoneally injected with 1 μg of LPS alone or combined with 1 μg of FhHDM-1, FhHDM-1 p3 or LL-37. Two hours later, sera was collected and serum levels of TNF and (F) IL-10 measured by ELISA. (G) Peritoneal macrophages were isolated, cultured unstimulated in media overnight and then levels of TNF and (H) IL-10 in the culture measured by ELISA. Data are the mean±SD of six mice in each group. Statistical significance represents a comparison to the levels of cytokines secreted by mice given LPS only.
Human Defense peptides protect against harmful inflammatory responses by preventing activation of macrophages by classical TLR ligands such as LPS (Scott et al. 2002, J. Immunol. 169, 3883-3891). Here, the inventors employed a murine model to examine whether FhHDM-1 and derived peptides can suppress LPS-induced Th1 inflammation. BALB/c mice were injected intra-peritoneally with 1 μg of LPS alone or LPS combined with 1 μg of FhHDM-1, FhHDM-1 p3 or LL-37. Two hours later, sera was collected and serum levels of the pro-inflammatory mediators TNF and IL-10 were measured by ELISA. […] Because macrophages are the main source of pro-inflammatory mediators in this murine model of inflammation, peritoneal macrophages were isolated from treated mice (LPS±FhHDM-1, peptides or LL-37 as described above), cultured unstimulated in media overnight and then levels of TNF and IL-10 in the culture media were measured by ELISA.
Six week-old female BALB/c mice were purchased from ARC (Perth, Australia) and maintained according to the guidelines of the University of Technology Sydney Animal Care and Ethics committee. For the analysis for endotoxin-induced inflammation, mice were intra-peritoneally injected with 1 μg of E. coli LPS (serotype 111:B4; Sigma) either with or without 1 μg FhHDM-1 or derived peptides. After 2 h mice were sacrificed by cervical dislocation. […]

[3] = test system: peritoneal macrophages; assay: Alternative activation of peritoneal macrophages in mice (RT-PCR); assay type: in vivo; details: Balb/c mice, three i.p. injections of 5 μg
Description: FIG. 7 is a photographic representation showing the results of a RT-PCR analysis of macrophage RNA isolated from Balb/c mice given three i.p. injections of 5 μg native FhHDM-1 (NFh6) or recombinant FhHDM-1 (FH6).
Balb/c mice were given three intraperitoneal (i.p.) injections of 5 μg native (NFh6) or recombinant FhHDM-1.

[4] = test system: peritoneal macrophages; assay: IL-10 secretion by peritoneal macrophages of treated NOD mice; assay type: in vivo; details: 10 μg i.p. x6, 24 h after last injection, compared to untreated mice
Description: FhHDM-1 was given to female NOD mice aged 4 weeks. 10 μg of FhHDM-1 was delivered i.p. in PBS on alternate days for a total of 6 doses. 24 h after the last injection, macrophages were isolated from the peritoneal lavage and cultured in RPMI supplemented with FCS for 12 h. IL-10 secreted into the media was measured by ELISA.
Female NOD mice (n=6) were given recombinant HDM (10 μg in 100 μL sterile PBS) by intraperitoneal (i.p.) injection on alternate days beginning at 4 weeks of age for a total of 6 injections. Control mice were given 100 μL of sterile PBS on the same days. 24 h after the last injection mice were sacrificed and peritoneal cells harvested by lavage. Macrophages were isolated from peritoneal lavages based upon their adherent properties, and cultured overnight at 37° C. in RPMI supplemented with FCS. The quantity of IL-10 secreted into the media was measured by ELISA.

[5] = BALB/c mice, 1 μg LPS mixed with 1 μg i.p., 2 h
[6] = macrophages from treated mice, cultured unstimulated overnight

B1: FhHDM-1: 90-residue polypeptide from F. hepatica, Helminth Defense Molecule-1 (SEQ ID NO:24); recombinant form minus N-terminal signal peptide, expressed in E. coli (protein, listed as Fasciola hepatica)
chain: MRFIVLLCLAEVLLAAYVEARPSEESREKLRESGRKMVKALRDAVTKAYEKARDRAMAYLAKDNLGEKITEVITILLNRLTDRLEKYAGN
further time the level of protection was sustained ([1]; after 18 weeks of age): 7 weeks
normoglycaemic mice ([1]; female NOD mice, 10 μg i.p. alternate days x6 from 4 weeks, at 18 weeks of age): 80%
serum levels of IL-10 [2, 5]: significant reduction
serum levels of TNF [2, 5]: significant reduction
LPS-induced secretion of IL-10 from peritoneal macrophages [2, 6]: significantly inhibited
TNF secreted from peritoneal macrophages [2, 6]: significantly reduced
expression of Arg-1 and Ym1 in isolated peritoneal macrophages [3]: increased expression
IL-10 secreted by peritoneal macrophages [4]: significantly more
